Measured values reported in patent publication US20040180341A1, “Transcriptional regulation of kinase inhibitors” (Brown University, priority 2003, published 2004).

Key:
[1] = test system: AP-1 dependent reporter gene; experiment: AP-1 dependent reporter gene (TRE-lacZ), microinjection into Rat-1 cells; assay type: cell-based; settings: for suppression of AP-1 reporter induction caused by anti-RKIP antibodies: MEK inhibitors given 1 h before microinjection
Description: In one embodiment, the RKIP protein inhibiting agent can be an antibody specifically recognizing an RKIP motif. For example, to examine the relevance of the interaction between RKIP and the kinases of the Raf/MEK/ERK module in mammalian cells, endogenous RKIP \was inhibited by antibody microinjection. Since the AP-1 transcription factor is a major target of Raf signaling (Kortenjann et al. Mol. Cell. Biol. 14:4815-4824, 1994;Rapp et al., Oncogene 9:3493-3498, 1994; Kolch et al. Oncogene 8:361-370, 1993), the influence of RKIP on AP-1 activity was tested as shown in FIG. 3.
Microinjections of antibodies and reporter genes were performed as described previously (Lavinsky et al. Proc. Natl. Acad. Sci. USA 95:2920-2925, 1998; Rose et al. J. Cell. Biol. 119:1405-1411, 1992). Briefly, quiescent Rat-1 cells were microinjected with the reporter plasmids and antibodies and either left unstimulated or treated with 200 ng/ml TPA or 20 μg/ml forskolin. The RKIP antiserum was purified over a GST-RKIP affinity column. NIH3T3 cells were stained with an activation specific anti-phospho-ERK monoclonal antibody (Sigma). ERK phosphorylation was quantified by densitometry. For this purpose areas with microinjected cells were randomly photographed, and the staining intensity of whole individual cells was measured using the PcBAS software.
(§1) In one embodiment, the present invention provides a method of identifying a cell growth modulating agent by analyzing the effect of a candidate agent on the expression of an RKIP responsive reporter. For example, to show the effect of the RKIP on the activity of the AP-1 mediated transcription, NIH 3T3 cells were co-transfected with a 3xTRE-CAT reporter and the above described expression plasmids. NIH 3T3 and 208F cells were transfected in 6-well plates with 1 μg of pCMV5-BXB and 3 μg of p53/RKIP using Superfect (Qiagen).
AP-1 luciferase assays and microinjection experiments with affinity-purified RKIP antiserum and TRE-lacZ reporter plasmids were carried out as previously described (Yeung et al. Nature, 401:173-177, 1999). […] This induction was due to the activation of MEK, since it could be suppressed by two structurally different MEK inhibitors, U0126 and PD98059 (FIG. 7(a)). […] These antibodies are therefore useful tools for investigating the molecular mechanism by which RKIP works. The RKIP antiserum interfered with the binding of Raf-1 and MEK to RKIP (FIG. 7(b)). […] Furthermore, the RKIP antibodies reversed the inhibitory effect of RKIP on MEK phosphorylation by Raf-1 (FIG. 7(c)).

Raf-1 [2] = molecular target: T1, Raf-1 (Homo sapiens, UniProt P04049); experiment: In vitro kinase assay of reconstituted Raf/MEK/ERK cascade: Raf-1; assay type: biochemical
T1 construct: GST (cleaved yes); made in house; host or cells: Sf-9 insect cells
Description: (§2) Kinase assays were done as described in Hafner et al. (Mol. Cell. Biol. 14:6696-6703, 1994). Activated Raf-1 was generated by co-expressing GST-Raf-1 with v-Ras and Lck in Sf-9 cells and collected on glutathione Sepharose beads. Subsequent thrombin cleavage released Raf-1 which was fully active and >90% pure. To activate MEK and ERK in vitro, 20 ng activated Raf-1 was incubated with 40 ng purified His/MEK-1 and 250 ng GST-ERK-2 in Raf kinase buffer containing 20 μM ATP for 20 minutes at 30° C. To measure kinase activities at individual steps the respective downstream components were omitted. The activation reactions were diluted into 50 μl Raf kinase buffer containing 20 μm ATP to yield equimolar concentrations of the kinases to be assayed and incubated with increasing amounts of purified RKIP on ice for 10 minutes. Similar assays may be performed with smaller polypeptides comprising RKIP motifs, or even with a peptide consisting essentially of an RKIP motif as defined herein. Then, 2 μCi [^32P]-γ-ATP and recombinant substrates were added and incubated for 20 minutes at 30° C. As substrates 200 ng kinase negative His/MEK-1 was used for Raf, 1 μg kinase negative GST-ERK for MEK, and 1 μg GST-ELK (New England Biolabs) for ERK. In some assays 1 μg GST-MEK was used as Raf-1 substrate with identical results.

Raf-1-MEK complexes = molecular target: T2, Raf-1-MEK complexes (Homo sapiens, UniProt P04049); experiment: Disruption of the Raf-1-MEK complex on glutathione Sepharose beads; assay type: binding; settings: in vitro, purified RKIP
T2 construct: made in house; host or cells: Sf-9 insect cells
Description: In vitro binding assays contained 5 μg of GST-fusion protein immobilized on glutathione Sepharose beads and 0.5-5 μg purified recombinant protein in PBS supplemented with 10% bovine serum as nonspecific competitor. Sf-9 cell lysates were used as source of Raf proteins (Hafner et al., 1994, Mol. Cell. Biol. 14: 6696-6703). After incubation for 1 hour at 4° C. the samples were washed 4 times with PBS, resolved by SDS-PAGE and blotted. The blots were developed using ECL (Amersham).
GST-MEK and Raf-1 were co-expressed in Sf-9 cells. The GST-MEK-Raf-1 complex was purified by adsorption to glutathione Sepharose beads, washed, and resuspended in PBS. Purified RKIP was added at the concentrations indicated. After 1 hour at 4° C., the GST-MEK beads were washed three times with PBS and examined for associated proteins by Western blotting (WB) with the indicated antisera.

AP-1 activity = experiment: 3xTRE-CAT reporter in NIH 3T3 cells co-transfected with RKIP; assay type: cell-based; settings: RKIP transfection
Description: as §1

[3] = test system: cell lines resistant to apoptosis; experiment: Sensitivity to apoptotic stimuli on RKIP expression; assay type: cell-based; settings: expression of RKIP; data not shown
NIH 3T3 and 208F cells = experiment: Transformation assays (morphological transformation, focus formation, soft agar); assay type: cell-based
Description: Additionally, NIH 3T3 cells were transfected with BXB, alone or together with RKIP (linked to neomycin/G418 resistance encoding gene). The G418-resistant colonies were counted and scored for morphological transformation. Aliquots of the same transfection were allowed to grow to confluency without drug and were scored for focus formation. A BXB-transformed cell line was infected with LXSH-RKIP retrovirus or LXSH (hygromycin resistant) and seeded in soft agar in the presence of hygromycin. […] The data are expressed as the reduction in focus formation relative to focus formation upon co-transfection with empty vector (set to 100%).

ERK [4] = molecular target: T3, ERK (Homo sapiens, UniProt P28482); experiment: In vitro kinase assay: ERK; assay type: biochemical; settings: purified RKIP, recombinant proteins in vitro
T3 construct: GST; made in house
T3 sequence (P28482 whole entry): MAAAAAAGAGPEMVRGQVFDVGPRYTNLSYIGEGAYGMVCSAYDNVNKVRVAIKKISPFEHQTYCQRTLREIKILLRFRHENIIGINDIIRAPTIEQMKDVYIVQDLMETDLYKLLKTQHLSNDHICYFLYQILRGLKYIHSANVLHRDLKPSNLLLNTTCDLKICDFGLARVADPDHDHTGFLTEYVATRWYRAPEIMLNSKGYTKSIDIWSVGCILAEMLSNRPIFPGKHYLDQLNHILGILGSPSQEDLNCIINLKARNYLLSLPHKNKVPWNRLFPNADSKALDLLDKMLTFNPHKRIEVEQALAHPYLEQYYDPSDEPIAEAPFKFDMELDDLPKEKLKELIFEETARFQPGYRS
Description: as §2

Raf-1 [5] = experiment: Raf-1 immunoprecipitate kinase activity in transfected COS-1 cells; assay type: cell-based; settings: co-transfection of RKIP
Description: (§3) The COS-1 cells were transfected as described (Catling et al., 1995, Mol. Cell. Biol. 15: 5214-5225) with 2 μg of HA-ERK-2, BXB, MEK and MEK-DD plasmids and the indicated amounts of p353/RKIP. The total amount of transfected DNA was kept constant using the appropriate vectors as carrier DNA. […] In addition, 0.1 μg of an AP1-Luc reporter was transfected for reporter gene assays. 48 hours post-transfection cells were serum starved for 20 hours and either left untreated or treated with TPA (200 ng/ml) or serum for 5 hours before being collected. Cells were lysed and cell extracts were used for immunoblotting or assayed for luciferase activity. For the GFP sorting experiments 5×10^6 NIH 3T3 cells were electroporated with either 100 μg pCMVori, 50 μg pCMV-GFP, and 50 μg pHACT or 100 μg pASC143, 50 μg CMV-GFP, and 50 μg CMV-HAC. Two days later cells were trypsinized and sorted for green fluorescent cells by preparative FACS. 100,000 GFP-positive cells were lysed in SDS-gel sample buffer and immunoblotted.
(§4) COS-1 cells were transiently transfected with HA-MEK and increasing amounts of RKIP expression vectors. Serum starved cells were stimulated with 100 ng/ml TPA for 20 minutes, and the kinase activities of Raf-1 and HA-MEK immunoprecipitates were measured.

GST-Raf-1 = molecular target: T4, GST-Raf-1 (Homo sapiens, UniProt P04049); experiment: Binding of purified RKIP to inactive and activated GST-Raf-1 beads; settings: recombinant RKIP produced in E. coli
T4 construct: made in house; host or cells: Sf-9 insect cells
Description: Activated GST-Raf-1 was produced in Sf-9 insect cells co-infected with RasV12 and Lck, which results in a robust activation of the catalytic activity. GST-Raf-1 proteins were purified by adsorption to glutathione Sepharose beads and incubated with recombinant RKIP produced in E. coli. […] We also tested whether activation affected the binding of MEK and ERK to RKIP. Purified MEK and ERK were phosphorylated in vitro with recombinant Raf-1 or Raf-1 plus MEK, respectively, and incubated with GST or GST-RKIP beads. The binding reaction products were washed, separated on SDS gels, and immunoblotted with the appropriate antisera. […] However, since only small fractions of MEK and ERK become phosphorylated, we also carried out the phosphorylation in the presence of […] The blots were autoradiographed to detect phosphorylated MEK and ERK and were subsequently stained with the cognate antisera to visualize total protein bound. Under these conditions, binding of phosphorylated MEK and ERK to RKIP was evident.

MEK [6] = experiment: In vitro kinase assay: MEK; assay type: biochemical
Description: as §2, with “results. […]” for “results.”

MEKK-1 = experiment: MEK phosphorylation by immunoprecipitated MEKK-1; assay type: biochemical; settings: MEKK-1 immunoprecipitated from COS-1 cells, knMEK substrate
Description: “BSA” indicates use of 15 μM bovine serum albumin; “Co.” substrate alone; and “kn”, kinase negative mutant. […] HA-MEK-DD or HA-MEK-1 expressed in COS-1 cells were immunoprecipitated with anti-HA antibodies from serum starved cells or TPA treated cells, respectively, and assayed for kinase activity. […] MEKK-1 was immunoprecipitated from transiently transfected COS-1 cells and used to phosphorylate knMEK.

ERK [7] = experiment: HA-ERK immunoprecipitate kinase activity in transfected COS-1 cells; assay type: cell-based
Description: as §3
COS-1 cells were transfected with the indicated expression plasmids plus increasing amounts of RKIP. HA-ERK-2 was immunoprecipitated and assayed with MBP.
COS-1 cells were transfected with the indicated expression vectors and the kinase activity of HA-ERK immunoprecipitates was examined.

MEK [8] = molecular target: T5, MEK (Homo sapiens, UniProt Q02750); experiment: HA-MEK immunoprecipitate kinase activity in transfected COS-1 cells; assay type: cell-based; settings: co-transfection of RKIP, dose dependent
T5 construct: expressed in transfected cells; host or cells: COS-1
Description: as §3, §4

[9] = purified RKIP, recombinant proteins in vitro
[10] = microinjection of an RKIP expression vector

N#CC(=C(/N)Sc1ccccc1N)/C(C#N)=C(\N)Sc1ccccc1N [U0126, reference compound]
suppression of AP-1 reporter induction caused by anti-RKIP antibodies [1]: suppressed

COc1cccc(-c2cc(=O)c3ccccc3o2)c1N [PD98059, reference compound]
suppression of AP-1 reporter induction caused by anti-RKIP antibodies [1]: suppressed

B1: RKIP: Raf kinase inhibitor protein; used as purified recombinant protein or expressed from vector p353/RKIP (protein, UniProt P30086 2-187, looked up)
Phosphatidylethanolamine-bindi …: PVDLSKWSGPLSLQEVDEQPQHPLHVTYAGAAVDELGKVLTPTQVKNRPTSISWDGLDSGKLYTLVLTDPDAPSRKDPKYREWHHFLVVNMKGNDISSGTVLSDYVGSGPPKGTGLHRYVWLVYEQDRPLKCDEPILSNRSGDHRGKFKVASFRKKYELRAPVAGTCYQAEWDDYVPKLYEQLSGK
mechanism of Raf-1 inhibition (Raf-1 [2]; Lineweaver-Burk plot, GST-MEK-1 substrate): competitive inhibitor | Raf-1 autophosphorylation or phosphorylation of MBP by Raf-1 (Raf-1 [2]; in vitro): did not interfere | phosphorylation of MEK by Raf-1 (Raf-1 [2]; [9]): decreased | physical interaction between Raf-1 and MEK (Raf-1-MEK complexes): disrupted | basal and BXB induced AP-1 activity (AP-1 activity): diminished | sensitivity to apoptotic stimuli [3]: rendered sensitive | induction of foci by v-fos or mutationally activated MEK alleles (NIH 3T3 and 208F cells; RKIP overexpression): only to a small extent | v-src transformation (NIH 3T3 and 208F cells; RKIP overexpression): failed to inhibit | total colony yield (NIH 3T3 and 208F cells; RKIP overexpression with BXB): decreased | transformation efficiency of BXB (NIH 3T3 and 208F cells; RKIP overexpression, morphological transformation, focus formation, anchorage independent growth): significantly reduced | ELK phosphorylation by ERK (ERK [4]): did not inhibit | activation of Raf-1 by TPA (Raf-1 [5]): only a small influence | RKIP binding to activated versus inactive GST-Raf-1 (GST-Raf-1): Less RKIP bound | inhibition of MEK-DD or MEK activated by TPA treatment of cells (MEK [6]; immunoprecipitated from COS-1 cells): failed to inhibit | ERK phosphorylation by MEK (MEK [6]; [9]): did not inhibit | MEK phosphorylation by MEKK-1 (MEKK-1): did not prevent | ERK activation by MEK-DD (ERK [7]; RKIP co-transfection): did not affect | activation of ERKs by v-Ras or v-Src oncogenes (ERK [7]; RKIP overexpression): downregulated | BXB induced activation of ERK (ERK [7]; increasing amounts of RKIP expression plasmid, dose dependent): inhibited | AP-1 induction by TPA and BXB [1, 10]: impaired | AP-1 stimulation by ERK-1 [1, 10]: did not interfere | activation of MEK by TPA (MEK [8]): strongly inhibited
